Results as given in publication PMC5849677.

Tests used:
[1] = molecular target: hC3d,g (s)-Fc (Cys to Ser variant of hC3dg-Fc) (human) (UniProt P01024); test: SPR; Biacore; hC3d or C3d(g)-Fc fusions immobilised by amine coupling (94.3-96.2 RU); Fc-fusion analytes 0.195-50 nM in HBS-EP+, physiological salt, 360 s injection; steady state affinity model; apparent KD
[2] = molecular target: native hC3d purified from human serum (human); test: as above

In the case of “hCR2 (SCR1-4)-Fc (from UniProt P20023 21-273) (Fc fusion)”, the Kd [1] is reported as 2.6 nM and the Kd [2] is reported as 10.6 nM.
